{
  "source": "a protein production outcome set (Wang et al. 2014)",
  "data": [
    {"experiment": "label from the status in PepcDB records", "values": [
      {"sequence": "MPIHIGSSIPLMVEKMLTEMVKPSKHIPQQTLNLSTLDNDPYNEVIYKACYVFKAKNVADDDNRPEALLREALSDLLGYYYPLSGSLKRQESDRKLQLSCGGDGGGVPFTVATANVELSSLKNLENIDSDTALNFLPVLHVDIDGYRPFALQVTKFECGGFILGMAMSHAMCDGYGEGHIMCALTDLAGGKKKPMVTPIWERERLVGKPEDDQPPFVPGDDTAASPYLPTDDWVTEKITIRADSIRRLKEATLKEYDFSNETITTFEVIGAYLWKSRVKALNLDRDGVTVLGLSVGIRNVVDPPLPDGYYGNAYIDMYVPLTAREVEEFTISDIVKLIKEAKRNAHDKDYLQEELANTEKIIKMNLTIKGKKDGLFCLTDWRNIGIFGSMDFGWDEPVNIVPVVPSETARTVNMFMRPSRLESDMVGGVQIVVTLPRIAMVKFKEEMEALE", "protein production": "failed"},
      {"sequence": "MPIITKNTDTTCQTPPLLSIICPAYNQEAFVAQALDGFLSQQTRFNYEILINDDASTDGTARIIAQYAERHPTIIRAFYQQVNQYSQGLPCVPDLFAEARGRYIAYCEADDYWTDPRKLQLQVDFLESHPDYVITYHDAVAFDENGEYGVQLQGHLRADATALELQQARRLSTLTTCFRNVFSTMPPELNIRVAPLNDMCWWSLLGAHGKGKFMADIKPAAYRLHAGGVFSMRSDKRKLHMNLQTCSSLANYYNLQGNQALYEYFLMQTVCLSLAALTPSHKLQTLWQVASNVVVNLGRRLLPTTGKAHVQ", "protein production": "failed"},
      {"sequence": "MPINTLESSPWRGSRHDFCRERLEPLLDQAGIRINGDRPWDIRVHDPAFFRRMFADASLGLGESYVDGWWDCDRIDEFICRIIRAGLADRFRSWRDAVAALQARLFNLQHAARAFHVGQRHYDIGNDLYGCMLDRRMIYSCGYWKDATTLDEAQEAKLDLVFRKIGLEPGMRVLDIGCGWGGAARFAAEKYGVEVYGVTVSAEQARYAREICQGLPVTIELKDYRDIEGHFDRAYSLGMFEHVGCKNYGTYMKLVADRLPDDGLFLLHTIGINTSDNHGNPWVDRYIFPNSMLPSIAQIGTATENRLVMEDWQNFGPDYDRTLLTWYDRFEWHWPSLRPRYGDRFYRMWRFYLLSFAGAFRARYIQLWQIVLSPKGLTRRYDAPR", "protein production": "failed"},
      {"sequence": "MPKGLMLTDLAIAGLLLIVAKVIRVHTPLLQRMYIPSAVLAGLFGLVFGPAMLDLLPWTDTFTANASLLTAALFSALGLATDVPSPKVVAQRAGSLWAFNQIASVSQWLFAAMFGLLLTTFFWPEINPGFGVTMSAGFMGGHGSASVVGDIFTGLGWEDGFTLGLTFATVGIFISISIGMLMLQFALKMGWIRSFTTFDSMDEHERKGLVKPTEQEPVMKDTMSSLSVDSFAIHAALVVVVTAFSYVAANYLSSFHDKVQIPTFVTGFLGGMLVRIVAKQTKASRYLCDGAFKHAAGISTDYLIIFGISAIKITVLAQYLAPMIVLAIGGIAFTLWLIFWVAPRIMGDDWFEKGIFSWGWLTGTVAMGIALLRIVDPKMRSKVLDDYAIAYVPGSITDIFIISLMPIAMYNGMEWQALGVGLAYIAVVLFIWRFVFKRSGQTVTDAS", "protein production": "failed"},
      {"sequence": "MPKHEFSVDMTCGGCAEAVSRVLNKLGGVKYDIDLPNKKVCIESEHSMDTLLATLKKTGKTVSYLGLE", "protein production": "not failed"},
      {"sequence": "MPKLPPLSLYIHIPWCVQKCPYCDFNSHAQKSDIPEQDYIYHLLQDLQADLQRFKDSIQQRKLHSIFIGGGTPSLFSAESIAYLLKEIKKQIDFEDNIEITLEANPGTVEAERFKGYVSAGIMRISMGIQSFNDDKLQRLGRIHNAAEAKSAVNLAKVSGLKSFNLDLMHGLPNQTLEEALDDLRQAIELSPPHISWYQLTIEPNTMFAYRPPKLPDDDALWDIFEQGHQLLTMAGYQQYETSAYAKAGFQCKHNLNYWRFGDYLAIGCGAHGKLTFPTGEITRFSKTKHPKGYLRGEYLYEEKNVPKIDRPFEFFMNRFRLLEAVPKQEFEDYTGLSQSAVKNQIDFAIQQNYIVENADSWQITEHGKLFLNELLELFLTEELEHHHHHH", "protein production": "not failed"},
      {"sequence": "MPKPHETAVYTHGHHESVLRSHTWRTAENSAAYLLGSLRPHMRILDIGCGPGTITADLAERVPEGHVTGVDRSPEIVERARATAAARGLENTGFAVADVHALDYPDDTFCVVHAHQVLQHVGDPVRALREMRRVARPGGFIAVRDSDYGAMTWYPASSGMDDWLDLYHRVARANGGEPDAGRRLKAWALEAGFTDITATSATWTFTTPEEREWWSGLWADRTLASAYAERATEGGHATPERLRAVSAAWRDWGKHPESWFSVLHGEILCRKEA", "protein production": "failed"},
      {"sequence": "MPKVEIAPSEIKIPDNVLKAKLGFGGAEEIPEEFRKTVNRAYEELLDAAKPVVLWRDFEVDGSLSFDDMRLTGELATKHLSGSKIITVFLATLGKKVDEKIEEYFRKGEDLLAFFIDGIASEMVEYALRKVDAELRMKRSNLEGSFRISPGYGDLPLSLNKKIAEIFKEEVDVNVIEDSYVLVPRKTITAFVGWREKNEKQT", "protein production": "not failed"},
      {"sequence": "MPKVTVSIKVVPAVEDGRLHEVIDRAIEKISSWGMKYEVGPSNTTVEGEFEEIMDRVKELARYLEQFAKRFVLQLDIDYKAGGITIEEKVSKYR", "protein production": "not failed"},
      {"sequence": "MPLIPAVPGLADRRMYVFLLLLTLGSGMSFQGWNTLYTNFAVHGAGLSGAENGLVQSIREVPGLLTFGVIPLLLLLREHRLAALAVLVTGVGVMTAGLLPTLWGVVATTLVMSFGFHYFEAVNQSLILQYFDVRTAPLVMGRLRGLAAGGNLVMGALVYVLADLFAFSTLFCIMGAFATVAGAWALTRDPSDPARPAQRRSMVLRRRYWLFYLLTILAGARRQIFTVFSVFLLVEHFGYGVREVALLFIVNNAVNWFLNPLIGRAVNRFGEQHLLTVEYSVLVLVFLGYTVTDSPLVAAFLYVVDHIFFNFAIAIRTFFQKIADPADIAPSMAMSVAINHIAAVVMPVCGGMLWMLDYRIPFYVGAGLAVASLLATQRIGAELRLQGVKPC", "protein production": "failed"},
      {"sequence": "MPLKKLIEIGSADFSVSTTACVLQLSHREVPVRGKQSKVISGVLADETARLPFTAWVELPGIDIGSIIRIEGAQIRMFRGMPSINFLEHHHHHH", "protein production": "failed"},
      {"sequence": "MPLPSLKDQFGALIAASSVSCTQPELDQTNRPVVDLLASWLGDLGFRCEIREVSPGKFNLLASYGSGPGGLVLAGHTDTVPYDEALWSSDPLRLDERDGRWYGLGSCDMKGFFPLAIEALLPLLDQPFRQPLMILATCDEESSMAGARALAESGRPLGRATVIGEPTNLRPIRLHKGVMMERIEILGQSGHSSDPNLGRSALEAMHATIGELMALRGEWQRAWNNPQFSVPQPTLNFGCIHGGDNPNRICGQCSLEFDLRPLPGMQPKQLREAIRQRLRPLAERHQVSIDYQPLFPAVPPFEQAQDSELVRVAERLTGHRAEAVAFGTEAPYFQRLGSETLVLGAGDIACAHQPDEHLELARIEPMVGVLRRLIQHYCLTPAAD", "protein production": "failed"},
      {"sequence": "MPLPSSARALKKPRLDDEVRFLRSWIEKPLHMGAVMPSGKLLARTMAHYVDVNSDAPVVELGPGTGAITSALVERGVDQKRLVLVEYNPGFCALLRDRYPQAKVVQGDAYRLRDTLWNVLSAPASAVVSGLPLVTKPMLTRLRLIRDAFTALAPGAPFVQFTYAVVPPIPKSLPGVSTEASERIWMNLPPARVWVYRKD", "protein production": "failed"},
      {"sequence": "MPLRFTTRRAEGGSARRPLSIVSCPLFCPSEPNQFSPMLFRQINDAKLAQYAYLIGCQETGEALLVDPERDIDRYLDLAEREGLEITAVTETHIHADFLSGARELAERFDTTLYLSDEGDENWKYEWAQGPKQGGGDYDVTWLHDGDTFQVGSVEVTALHTPGHTPEHLSFLVTDRGGGADEPMGLLTGDFVFVGDLGRPDLLESAAQVEGAMEPSARTLYTSVQRVLEMPDHLQVWPAHGAGSACGKALGAVPQSTLGYEKQFNPMIDAAREGEDAFVEAILADQPEPQIYFARMKRDNKEGMPVLGSLPAPRELTVRELEDAAADEAPLVIDTRLDRSAYMANHIPGSLYAPMNDTFNTVVGSLVEDETTPIVLIADEGDVEEAVRDLVRIGYDNVTGFAEIDTLQRYFQAGGPSETIDEITFADFDAELQDEATGVLDVRYRSEYEEGHVEGALNASYTRMPEYETELPTDKTLLVHCGSGARAAAASSYLARTGHSVKYVNDHFANYEAASEEAVAA", "protein production": "failed"},
      {"sequence": "MPLTDTPPSVPQKPRRGRPRGAPDASLAHQSLIRAGLEHLTEKGYSSVGVDEILKAARVPKGSFYHYFRNKADFGLALIEAYDTYFARLLDQAFLDGSLAPLARLRLFTRMAEEGMARHGFRRGCLVGNLGQEMGALPDDFRAALIGVLETWQRRTAQLFREAQACGELSADHDPDALAEAFWIGWEGAILRAKLELRPDPLHSFTRTFGRHFVTRTQE", "protein production": "not failed"},
      {"sequence": "MPLTNNSTTKPQEIAAIDLGSNSFHMVIARVVNGALQVLGRLKQRVHLADGLDSNNMLSEEAIERGLACLALFAERLQGFSPDNVCIVGTHTLRQAANAETFLKRAAEVIPYPIEIISGQEEARLIFMGVEHTQPEKGRKLVIDIGGGSTEMVIGEDFEPLLVESRRMGCVSFAQQFFPGGEISKNNFRRARLAAAQKLENLAWQYRIQGWQYALGASGTIKATYEVLVEMGEKDGLITPERLEMLVENVLQFKQFSALSLPGLSEDRQSVFVPGLAILCGVFDALAIKTLRLSDGALREGVLYEMEGRFRHQDIRQRTAKSLADHYNIDREQARRVLETTEQLYTQWLAQNTKLVQPQLEALLKWAAMLHEVGLSINHSGMHRHSAYILQNTNLPGFNQEQQTLLATLVRMHRKAIKLDELPRLNLFKKKYYLPLIQLLRLSTLLNNQRQSTTTPESLRLITDDSHWTLRFPHGYLTQNSLVQLDFEREQAYWDDVVGWKLVIEEEEPDEAAKVAPEE", "protein production": "not failed"},
      {"sequence": "MPLVKRNIDPRHLCHTALPRGIKNELECVTNISLANIIRQLSSLSKYAEDIFGELFNEAHSFSFRVNSLQERVDRLSVSVTQLDPKEEELSLQDITMRKAFRSSTIQDQQLFDRKTLPIPLQETYDVCEQPPPLNILTPYRDDGKEGLKFYTNPSYFFDLW", "protein production": "failed"},
      {"sequence": "MPLVTRNIEPRHLCRQTLPSVRSELECVTNITLANVIRQLGSLSKYAEDIFGELFTQANTFASRVSSLAERVDRLQVKVTQLDPKEEEVSLQGINTRKAFRSSTIQDQKLFDRNSLPVPVLETYNTCDTPPPLNNLTPYRDDGKEALKFYTDPSYFFDLWKEKMLQDTKDIMKEKRKHRKEKKDNPNRGNVNPRKIKTRKEEWEKMKMGQEFVESKEKLGTSGYPPTLVYQNGSIGCVENVDASSYPPPPQSDSASSPSPSFSEDNLPPPPAEFSYPVDNQRGSGLAGPKRSSVVSPSHPPPAPPLGSPPGPKPGFAPPPAPPPPPPPMIGIPPPPPPVGFGSPGTPPPPSPPSFPPHPDFAAPPPPPPPPAADYPTLPPPPLSQPTGGAPPPPPPPPPPGPPPPPFTGADGQPAIPPPLSDTTKPKSSLPAVSDARSDLLSAIRQGFQLRRVEEQREQEKRDVVGNDVATILSRRIAVEYSDSEDDSSEFDEDDWSD", "protein production": "not failed"}
    ]}
  ]
}
